Target: the molecule itself
Experiment: cross-linking; PEG5 cross-linker (0.1 M-1 M), protein at 20 nM and 50 nM, 50 mM sodium phosphate, 150 mM NaCl, pH 7.4, 25 °C, 30 min, read by SDS-PAGE

B1: PRC1 dimerization domain (PRC1-DD; aa 1-65 of Protein Regulator of Cytokinesis 1) (domain or fragment, human, UniProt O43663-1 1-65, looked up)
chain: MRRSEVLAEESIVCLQKALNHLREIWELIGIPEDQRLQRTEVVKKHIKELLDMMIAEEESLKERL
notes: Protein Regulator of Cytokinesis 1 (PRC1), human, isoform 1 (NP_003972; full length 620 residues), residues 1-65 (dimerization domain); Cloned between Nde I and Xho I of pET-21a with a C-terminal His-tag; no removal of the tag is described; For NMR the protein was 15N- or 15N/13C-labelled; isotopic heterodimers were made by mixing unlabelled and labelled protein in 8 M urea; also called …
- stoichiometry N: 2
